In patent US20220403029A1 (KYMAB, published 2022):
Where two headings read alike, the source gives them in different places.

Key:
[1] = target: T1, human ICOS expressed on cells (human, UniProt Q9Y6W8 21-199); experiment: cell-based or functional assay
T1 sequence: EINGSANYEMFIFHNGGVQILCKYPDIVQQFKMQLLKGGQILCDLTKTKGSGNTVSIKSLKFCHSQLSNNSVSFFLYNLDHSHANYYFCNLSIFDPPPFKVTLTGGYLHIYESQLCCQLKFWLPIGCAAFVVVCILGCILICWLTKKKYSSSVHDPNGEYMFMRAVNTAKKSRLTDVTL

[2] = target: T1, human ICOS expressed on cells; experiment: cell-based or functional assay; remark: listed apart in the source
[3] = target: T1, human ICOS expressed on cells; experiment: cell-based or functional assay; remark: listed apart in the source
[4] = target: T2, human ICOS-mFc (Chimerigen) (human, UniProt Q9Y6W8 21-141); experiment: HTRF neutralisation of human B7-H2 binding to human ICOS-mFc, hamster IgG in the IgG4.PE series; SD 3.8 (n = 4)
T2 construct: bought; also called human ICOS receptor; not shown: mouse Fc of a bought reagent
T2 sequence (looked up): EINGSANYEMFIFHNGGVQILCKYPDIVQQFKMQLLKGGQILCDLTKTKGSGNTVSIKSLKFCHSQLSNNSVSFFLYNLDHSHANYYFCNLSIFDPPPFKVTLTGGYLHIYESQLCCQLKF

[5] = target: T3, mouse ICOS-mFc (Chimerigen) (mouse, UniProt Q9WVS0 21-144); experiment: HTRF neutralisation of mouse B7-H2 binding to mouse ICOS-mFc, hamster IgG in the IgG1 series; SD 0 (n = 3)
T3 construct: bought; also called mouse ICOS receptor; not shown: mouse Fc of a bought reagent
T3 sequence (looked up): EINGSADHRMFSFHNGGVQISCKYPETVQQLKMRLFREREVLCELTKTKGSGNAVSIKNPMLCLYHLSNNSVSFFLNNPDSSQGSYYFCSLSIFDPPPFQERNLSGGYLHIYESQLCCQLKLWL

[6] = target: T3, mouse ICOS-mFc (Chimerigen); experiment: HTRF neutralisation of mouse B7-H2 binding to mouse ICOS-mFc, IgG1 series; same result as the 6th table, row 13, column 3 with more digits
[7] = target: T2, human ICOS-mFc (Chimerigen); experiment: HTRF neutralisation of human B7-H2 binding to human ICOS-mFc, hamster IgG in the IgG1 series; SD 0.3 (n = 4)
[8] = target: T3, mouse ICOS-mFc (Chimerigen); experiment: HTRF neutralisation of mouse B7-H2 binding to mouse ICOS-mFc, hamster IgG in the IgG4.PE series; SD 0.1 (n = 3)
[9] = target: T4, mouse ICOS expressed on CHO-S cells (mouse, UniProt Q9WVS0 21-141); experiment: FACS screen on CHO-S cells expressing mouse ICOS
T4 construct: full length mouse ICOS (NCBI NP_059508.2) was transfected; also called mICOS CHO; Mouse ICOS CHO
T4 sequence: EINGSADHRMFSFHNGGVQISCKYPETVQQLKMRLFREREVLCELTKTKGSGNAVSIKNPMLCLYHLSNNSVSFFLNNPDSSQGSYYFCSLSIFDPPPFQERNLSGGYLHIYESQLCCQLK
Protocol: (§1) BCT supernatants and HEK293 expressed antibodies from Example 5 were tested for ability to bind to CHO-S cells expressing human or mouse ICOS.
(§2) CHO-S cells expressing human or mouse ICOS (see Example 2), were diluted in FACS buffer (PBS 1% BSA 0.1% sodium azide) and were distributed to a 96-well, V-bottom plate (Greiner) at a density of 1×10⁵ cells per well. Cells were washed with 150 μL PBS and centrifuged at 300 g for 3 minutes. For supernatant screening, supernatant was aspirated and 150 μL PBS added. This wash step was repeated. 30 μL BCT undiluted supernatant or 50 μL of reference antibody or control antibody diluted to 5 μg/ml in BCT media was added to the washed cells. Cells were incubated at 4° C. for 60 minutes. 150 μL FACS buffer was added and cells washed as described above. To detect antibody binding, 50 μL of goat anti-mouse APC (Jackson ImmunoResearch) diluted to 2 μg/ml in FACS buffer was added to cells. Cells were incubated 4° C. for 60 minutes. Cells were washed twice with 150 μL FACS buffer, centrifuging at 300 g for 3 minutes after each wash step and aspirating supernatant. Cells were fixed by addition of 25 μL 4% paraformaldehyde for 20 minutes at room temperature. Cells were washed once as above and resuspended in FACS buffer for analysis. APC signal intensity (geometric mean) was measured by flow cytometry using a BD FACS Array instrument. Data were plotted as geometric mean values without further calculation.

[10] = target: T1, human ICOS expressed on cells; experiment: FACS screen on CHO-S cells expressing human ICOS
Protocol: as §1, §2

[11] = target: T4, mouse ICOS expressed on CHO-S cells; experiment: flow cytometry on CHO-S cells expressing mouse ICOS
[12] = target: T1, human ICOS expressed on cells; experiment: flow cytometry on CHO-S cells expressing human ICOS

B1: STIM003 human IgG1 (antibody)
heavy: not shown
light: EIVLTQSPGTLSLSPGERATLSCRASQSVSRSYLAWYQQKRGQAPRLLIYGASSRATGIPDRFSGDGSGTDFTLSISRLEPEDFAVYYCHQYDMSPFTFGPGTKVDIKRTVAAPSVFIFPPSDEQLKSGTASVVCLLNNFYPREAKVQWKVDNALQSGNSQESVTEQDSKDSTYSLSSTLTLSKADYEKHKVYACEVTHQGLSSPVTKSFNRGEC
EC50, primary NK cell ADCC on ICOS-transfected CCRF-CEM cells, 4 h, Donor 4 [1]: ~0.003 nM | EC50, primary NK cell ADCC on ICOS-transfected CCRF-CEM cells, 4 h, Donor 5 [1]: 0.000895 nM | EC50, primary NK cell ADCC on ICOS-transfected CCRF-CEM cells, 4 h, Donor 6 [1]: 0.00103 nM | EC50, primary NK cell ADCC on MJ cells, 2 h, Donor 1 [2]: 0.00233 nM | EC50, primary NK cell ADCC on MJ cells, 2 h, Donor 2 [2]: 0.0358 nM | EC50, primary NK cell ADCC on MJ cells, 2 h, Donor 3 [2]: 0.101 nM

B2: STIM001 human IgG1 (antibody)
heavy: not shown
light: DIVMTQSPLSLPVTPGEPASISCRSSQSLLHSNEYNYLDWYLQKPGQSPQLLIFLGSNRASGVPDRFSGSGSGTDFTLKITRVEAEDVGIYYCMQSLQTPLTFGGGTKVEIKRTVAAPSVFIFPPSDEQLKSGTASVVCLLNNFYPREAKVQWKVDNALQSGNSQESVTEQDSKDSTYSLSSTLTLSKADYEKHKVYACEVTHQGLSSPVTKSFNRGEC
EC50, primary NK cell ADCC on MJ cells, 2 h, Donor 1 [3]: 0.121 nM | EC50, primary NK cell ADCC on MJ cells, 2 h, Donor 2 [3]: 0.529 nM | EC50, primary NK cell ADCC on ICOS-transfected CCRF-CEM cells, 4 h, Donor 4 [1]: 0.00392 nM | EC50, primary NK cell ADCC on ICOS-transfected CCRF-CEM cells, 4 h, Donor 5 [1]: 0.00395 nM | EC50, primary NK cell ADCC on ICOS-transfected CCRF-CEM cells, 4 h, Donor 6 [1]: 0.00375 nM | EC50, primary NK cell ADCC on MJ cells, 2 h, Donor 1 [2]: 0.121 nM | EC50, primary NK cell ADCC on MJ cells, 2 h, Donor 2 [2]: 0.529 nM | EC50, primary NK cell ADCC on MJ cells, 2 h, Donor 3 [2]: 2.92 nM

B3: Anti-ICOS antibody C398.4A (hamster IgG) (antibody, V domains shown)
VH: EVQLVESGGGLVKPAGSLTLSCVASGFTFSDYFMHWVRQAPGKGLEWVAVIDTKSFNYATYYSDLVKGRFTVSRDDSQGMVYLQMNNLRKEDTATYYCTATIAVPYYFDYWGQGTMVTVSS
VL: DIQMTQSPSSLPASLGDRVTINCQASQDISNYLSWYQQKPGKAPKLLIYYTNLLADGVPSRFSGSGSGRDYSFTISSLESEDIGSYYCQQYYNYRTFGPGTKLEIK
IC50 [4]: 2.8 nM | IC50 [5]: 0.1 nM | IC50 [6]: 0.14 nM | IC50 [7]: 1.2 nM | IC50 [8]: 0.2 nM

B4: STIM009 as screened from BCT (mouse IgG1 constant region) (antibody, V domains shown)
VH: QVQLVESGGGLVKPGGSLRLSCAASGFTFSDYYMSWIRQAPGKGLEWVSYISSSGSTIYYADSVKGRFTISRDNAKNSLYLQINSLRAEDTAVYYCARDFYDILTDSPYFYYGVDVWGQGTTVTVSS
VL: not shown
notes: as m28
fold above average geomean of hybrid control [9]: > 4 fold | fold above average geomean of hybrid control [10]: > 4 fold

B5: STIM003 as screened from BCT (mouse IgG1 constant region) (antibody, V domains shown)
VH: EVQLVESGGGVVRPGGSLRLSCVASGVTFDDYGMSWVRQAPGKGLEWVSGINWNGGDTDYSDSVKGRFTISRDNAKNSLYLQMNSLRAEDTALYYCARDFYGSGSYYHVPFDYWGQGILVTVSS
VL: EIVLTQSPGTLSLSPGERATLSCRASQSVSRSYLAWYQQKRGQAPRLLIYGASSRATGIPDRFSGDGSGTDFTLSISRLEPEDFAVYYCHQYDMSPFTFGPGTKVDIK
notes: as m28
fold above average geomean of negative control (HTK888) [9]: > 4 fold | fold above average geomean of negative control (HTK888) [10]: > 4 fold

B6: CL-74570 (IgG1 format) (antibody, V domains shown)
VH: EVQLVESGGGVIRPGGSLRLSCAASGFTFDDYGMSWVRQAPGKGLEWVSGINWIGDNTDYADSVKGRFTISRDNAKNSLYLQMNSLRAEDTALYYCARDYFGSGSYYNVPF
VL: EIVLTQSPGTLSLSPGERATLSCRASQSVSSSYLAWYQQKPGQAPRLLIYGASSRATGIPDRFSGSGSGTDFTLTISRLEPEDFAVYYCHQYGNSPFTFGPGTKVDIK
notes: synthesised and expressed in human IgG1 format in HEK cells; tested as supernatant
fold above average geomean of negative control [11]: > 10 fold | fold above average geomean of negative control [12]: > 10 fold

B7: CL-61091 (IgG1 format) (antibody, V domains shown)
VH: QVQLMQSGTEVKKPGASVKVSCKTSGYTFTTYGITWVRQAPGQGLEWMGWISAYSGDTDYAQKFQGRVTVTTDTSTNTAYMELRSLKSDDTAVYYCARSSGWPHHYGMDVWGQGTTVTVSS
VL: DIVMTQSPLSLPVTPGEPASISCRSSQSLLHSNGFNYFDWYLQKPGQSPQLLIFLVSNRASGVPDRFSGSGSGTDFTLKISRVEAEDVGIYYCMQALQTPLTFGGGTKVEIK
notes: as for B6
fold above average geomean of negative control [11]: > 10 fold | fold above average geomean of negative control [12]: > 10 fold

B8: STIM004 as screened from BCT (mouse IgG1 constant region) (antibody, V domains shown)
VH: EVQLVESGGGVVRPGGSLRLSCAASGLTFDDYGMSWVRQVPGKGLEWVSGINWNGDNTDYADSVKGRFTISRDNAKNSLYLQMNSLRAEDTALYYCARDYYGSGSYYNVPFDYWGQGTLVTVSS
VL: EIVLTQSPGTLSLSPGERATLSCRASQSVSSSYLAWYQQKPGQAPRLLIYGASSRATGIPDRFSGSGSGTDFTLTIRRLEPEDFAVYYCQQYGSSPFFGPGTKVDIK
notes: as m28
fold above average geomean of negative control (HTK888) [9]: > 4 fold | fold above average geomean of negative control (HTK888) [10]: > 4 fold

B9: STIM005 as screened from BCT (mouse IgG1 constant region) (antibody, V domains shown)
VH: QVQLVQSGAEVKKPGASVKVSCKASGYTFNSYGIIWVRQAPGQGLEWMGWISVHNGNTNCAQKLQGRVTMTTDTSTSTAYMELRSLRTDDTAVYYCARAGYDILTDFSDAFDIWGHGTMVTVSS
VL: DIQMTQSPSSLSASVGDRVTITCRASQNINNFLNWYQQKEGKGPKLLIYAASSLQRGIPSTFSGSGSGTDFTLTISSLQPEDFATYICQQSYGIPWVGQGTKVEIK
notes: as m28
fold above average geomean of negative control (HTK888) [9]: > 4 fold | fold above average geomean of negative control (HTK888) [10]: > 4 fold

B10: STIM001 as screened from BCT (human V regions on mouse IgG1 constant region) (antibody, V domains shown)
VH: QVQVVQSGAEVKKPGASVKVSCKASGYTFSTFGITWVRQAPGQGLEWMGWISAYNGDTNYAQNLQGRVIMTTDTSTSTAYMELRSLRSDDTAVYYCARSSGHYYYYGMDVWGQGTTVTVSS
VL: DIVMTQSPLSLPVTPGEPASISCRSSQSLLHSNEYNYLDWYLQKPGQSPQLLIFLGSNRASGVPDRFSGSGSGTDFTLKITRVEAEDVGIYYCMQSLQTPLTFGGGTKVEIK
fold above average geomean of hybrid control [9]: > 4 fold | fold above average geomean of hybrid control [10]: > 4 fold

B11: STIM002-B as screened from BCT (mouse IgG1 constant region) (antibody, V domains shown)
VH: QVQLVQSGGEVKKPGASVKVSCKASGYTFTSYGFSWVRQAPGQGLEWMGWISAYNGNTNYAQKLQGRVTMTTDTSTSTAYMELRSLRSDDTAVYYCARSTYFYGSGTLYGMDVWGQGTTVTVSS
VL: DIVMTQSPLSLPVTPGEPASISCRSSQSLLHSDGYNCLDWYLQKPGQSPQLLIYLGSTRASGFPDRFSGSGSGTDFTLKISRVEAEDVGVYYCMQALQTPCSFGQGTKLEIK
notes: as m28
fold above average geomean of hybrid control [9]: > 4 fold | fold above average geomean of hybrid control [10]: > 4 fold
